The source of these data is patent US20210324028A1 (Pfizer, published 2021).

The target in assay [1] is T1, IL-15 signaling receptor on 32D[pRF770+pRF791] cells (human CD122 plus mouse CD132) (human; mouse, UniProt P14784 27-551; P34902 23-369).
T1 construct: whole, on cells; also called CD122 plus CD132; PD-1(low) cells
T1 sequence (looked up) 1: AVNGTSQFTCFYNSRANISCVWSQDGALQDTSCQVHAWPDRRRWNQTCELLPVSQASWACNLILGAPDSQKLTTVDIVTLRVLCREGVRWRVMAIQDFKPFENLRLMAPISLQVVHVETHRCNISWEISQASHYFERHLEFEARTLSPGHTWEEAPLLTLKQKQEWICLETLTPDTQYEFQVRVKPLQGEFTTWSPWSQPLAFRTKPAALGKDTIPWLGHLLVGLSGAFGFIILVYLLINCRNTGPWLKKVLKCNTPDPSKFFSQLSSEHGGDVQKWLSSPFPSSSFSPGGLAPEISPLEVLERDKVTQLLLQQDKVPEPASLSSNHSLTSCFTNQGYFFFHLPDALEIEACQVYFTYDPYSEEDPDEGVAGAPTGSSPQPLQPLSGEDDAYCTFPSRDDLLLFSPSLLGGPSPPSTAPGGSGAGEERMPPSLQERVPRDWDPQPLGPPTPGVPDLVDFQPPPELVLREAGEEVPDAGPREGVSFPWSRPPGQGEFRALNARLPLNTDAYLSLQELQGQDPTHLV
T1 sequence (looked up) 2: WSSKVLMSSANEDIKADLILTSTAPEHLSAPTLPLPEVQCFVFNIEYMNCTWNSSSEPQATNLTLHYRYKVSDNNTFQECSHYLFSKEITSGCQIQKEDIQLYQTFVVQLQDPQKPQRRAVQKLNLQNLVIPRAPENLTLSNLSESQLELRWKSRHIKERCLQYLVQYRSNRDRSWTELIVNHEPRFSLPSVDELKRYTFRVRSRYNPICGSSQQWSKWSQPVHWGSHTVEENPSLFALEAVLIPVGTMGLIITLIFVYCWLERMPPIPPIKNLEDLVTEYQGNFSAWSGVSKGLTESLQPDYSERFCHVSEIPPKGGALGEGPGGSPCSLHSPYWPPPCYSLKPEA
The assay can be described thus: flow cytometry, Alexa647-labelled protein on uninduced 32D[pRF770+pRF791] cells (human CD122 plus mouse CD132), 4 C 30 min, % A647-positive cells. The protocol:
(§1) The following cell lines were suspended in growth medium to 0.7*10\hat{ }6 cells/mL and, cultured for 16 hrs: 1) untransduced 32D (parental line); 2) 32D[pRF770+pRF791]; and 3) 32D[pRF770+pRF791] grown in the presence of 1 ug/mL doxycycline, to induce PD-1 expression. Cultures were then resuspended to a final concentration of 1.0*10\hat{ }6 cells/mL, and 0.1 mL of each suspension was plated into separate wells of a 96-well round-bottom plate, of sufficient number required for the experiment. Each Alexa647-labeled antibody or antibody-cytokine chimeric proteins were then added to a unique well to obtain a final concentration of 500 nM, 100 nM, […], 1 nM, 0.1 nM, 0.01 nM, or 0.001 nM in a given well. Plates were incubated at 4° C. for 30′, and then the cells were pelleted by centrifugation (300×g, 5′) and resuspended in 0.2 mL of PBS. This wash step was repeated twice. Upon final resuspension, the cells were analyzed on an LSRII flow cytometer. Data were analyzed using FlowJo version 10.
On the technique in general: A flow cytometer gives signals particle by particle.

Assay [2] concerns the target T2, mouse PD-1 on doxycycline-induced 32D[pRF770+pRF791] cells (mouse, UniProt Q02242 25-288).
T2 construct: whole, on cells; also called PD-1+ cells; [pRF770+pRF791]+Dox
T2 sequence (looked up): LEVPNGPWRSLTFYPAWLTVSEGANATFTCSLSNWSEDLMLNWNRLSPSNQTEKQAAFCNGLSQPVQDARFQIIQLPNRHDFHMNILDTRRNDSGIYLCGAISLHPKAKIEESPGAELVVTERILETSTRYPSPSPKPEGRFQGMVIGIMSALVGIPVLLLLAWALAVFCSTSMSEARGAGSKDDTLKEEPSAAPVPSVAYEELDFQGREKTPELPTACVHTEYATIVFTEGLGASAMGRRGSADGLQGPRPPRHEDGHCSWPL
Kind of assay: flow cytometry, Alexa647-labelled protein on doxycycline-induced 32D[pRF770+pRF791] cells, 4 C 30 min, % A647-positive cells. The protocol:
as §1

The term EC50 (read off the curve) denotes the concentration at which the effect is half-maximal. Read a high EC50 (read off the curve) as a need for much substance.

B1: xmPD-1 (antibody, human IgG2, kappa, V domains shown)
VH: EVQLVESGGGLVKPGGSLELSCAASGFTFSSYWMSWVRQAPEKGLEWVAAISPSGGSTYYADSVKGRFTISRDNAKNTLFLQMTSLRSEDTAMYYCAKESWGAYYDLWGQGTTVTVSS
VL: DIVMTQSPSSLSVSAGDKVTMSCRASQGISSWLAWYQQKPWQPPKLLIYKASTLESGVPDRFTGSGSGTDFTLTISSVQAEDLAVYYCQQSYSTPWTFGGGTKLEIKG
notes: human IgG2dA constant regions; also called anti-mouse PD-1 antibody; clone F12.3
With B1, the binding result in assay [1] is “no binding (tested: 500 nM)”. The “EC50 (read off the curve)” value in assay [2] is around 0.03 nM.
